For the data set, the target named is SARS-CoV-2 N-CTD (nucleocapsid C-terminal domain) (SARS-CoV-2, UniProt P0DTC9 247-364). Nature of the data set: BLI; BLI and EMSA: 25 mM sodium phosphate, 50 mM NaCl, pH 6.0; EMSA 25 C, 30 min, 10 uM RNA, 20% native PAGE. Particulars: protein: recombinant; biotinylated for BLI; 15N-labelled for NMR; chain copies: 2; label: none. (Biolayer interferometry detects binding as a change in optical thickness at a sensor tip.)

B1: 15-nt SARS-CoV-2 genome-derived RNA (ssRNA)
RNA: AUAUGGAAGAGCCCUA
In the case of B1, the Kd is about 10.1 µM.

As usually defined, the Kd is the equilibrium constant for the complex coming apart.

Source of the values: publication PMC13107021, “Structural basis for suramin binding to the C-terminal domain of the SARS-CoV-2 nucleocapsid protein”.
